Reference: PMC2756588

T1: Myo5, Q04439
T1 sequence (Q04439 1072-1160, looked up): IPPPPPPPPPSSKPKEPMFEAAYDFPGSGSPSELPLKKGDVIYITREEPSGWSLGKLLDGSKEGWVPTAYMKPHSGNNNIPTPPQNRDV

T2: Pin3, Q06449
T2 sequence (Q06449 53-122, looked up): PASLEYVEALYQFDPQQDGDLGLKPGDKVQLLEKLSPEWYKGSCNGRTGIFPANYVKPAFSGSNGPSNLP

T3: Boi2, P39969
T3 sequence (P39969 32-116, looked up): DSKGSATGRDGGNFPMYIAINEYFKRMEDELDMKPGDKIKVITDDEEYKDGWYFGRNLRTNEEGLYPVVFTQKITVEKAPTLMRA

T4: Lsb4, P32793
T4 sequence (P32793 402-468, looked up): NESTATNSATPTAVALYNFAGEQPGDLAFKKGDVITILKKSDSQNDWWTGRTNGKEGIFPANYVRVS

T5: Nbp2, Q12163
T5 sequence (Q12163 103-180, looked up): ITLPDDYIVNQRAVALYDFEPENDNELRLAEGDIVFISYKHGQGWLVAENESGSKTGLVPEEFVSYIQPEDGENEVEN

T6: Boi1, P38041
T6 sequence (P38041 1-86, looked up): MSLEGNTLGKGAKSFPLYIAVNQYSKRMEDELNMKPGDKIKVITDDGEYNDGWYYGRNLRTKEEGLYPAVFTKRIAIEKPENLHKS

T7: Bbc1, P47068
T7 sequence (P47068 1-78, looked up): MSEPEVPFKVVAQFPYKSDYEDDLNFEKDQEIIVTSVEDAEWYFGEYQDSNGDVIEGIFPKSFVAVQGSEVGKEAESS

T8: Sla1-3, P32790
T8 sequence (P32790 344-424, looked up): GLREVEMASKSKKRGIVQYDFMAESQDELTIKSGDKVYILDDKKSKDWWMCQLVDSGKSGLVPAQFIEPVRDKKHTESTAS

T9: Lsb3, P43603
T9 sequence (P43603 385-451, looked up): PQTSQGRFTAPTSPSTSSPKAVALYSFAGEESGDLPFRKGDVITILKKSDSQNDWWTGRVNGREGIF

T10: Sla1-2, P32790
T10 sequence (P32790 60-140, looked up): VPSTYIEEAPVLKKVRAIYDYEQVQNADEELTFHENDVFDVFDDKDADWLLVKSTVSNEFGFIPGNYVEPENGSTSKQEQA

T11: Pex13, P80667
T11 sequence (P80667 295-386, looked up): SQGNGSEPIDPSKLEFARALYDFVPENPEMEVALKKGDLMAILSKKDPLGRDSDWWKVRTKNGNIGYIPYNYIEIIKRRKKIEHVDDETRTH

T12: Bzz1-2, P38822
T12 sequence (P38822 568-633, looked up): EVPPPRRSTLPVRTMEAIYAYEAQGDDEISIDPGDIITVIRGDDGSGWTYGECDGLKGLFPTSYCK

T13: Hse1, P38753
T13 sequence (P38753 208-285, looked up): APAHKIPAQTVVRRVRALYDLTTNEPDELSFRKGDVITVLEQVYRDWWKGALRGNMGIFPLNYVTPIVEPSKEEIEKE

T14: Cdc25, P04821
T14 sequence (P04821 50-136, looked up): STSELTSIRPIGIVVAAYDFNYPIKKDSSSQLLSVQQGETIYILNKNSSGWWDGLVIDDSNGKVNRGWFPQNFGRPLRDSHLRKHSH

T15: Cyk3, Q07533
T15 sequence (Q07533 1-83, looked up): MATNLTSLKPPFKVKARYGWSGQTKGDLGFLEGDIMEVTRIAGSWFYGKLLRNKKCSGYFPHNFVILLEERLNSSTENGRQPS

T16: Abp1, P15891
T16 sequence (P15891 535-592, looked up): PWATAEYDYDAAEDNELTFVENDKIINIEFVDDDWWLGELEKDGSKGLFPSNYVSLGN

T17: Bud14, P27637
T17 sequence (P27637 247-328, looked up): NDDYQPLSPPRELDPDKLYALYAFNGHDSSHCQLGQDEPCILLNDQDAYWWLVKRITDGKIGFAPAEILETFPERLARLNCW

T18: Fus1, P11710
T18 sequence (P11710 432-512, looked up): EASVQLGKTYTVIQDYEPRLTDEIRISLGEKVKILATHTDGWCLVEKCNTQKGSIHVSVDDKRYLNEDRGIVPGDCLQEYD

T19: Hof1, Q05080
T19 sequence (Q05080 590-669, looked up): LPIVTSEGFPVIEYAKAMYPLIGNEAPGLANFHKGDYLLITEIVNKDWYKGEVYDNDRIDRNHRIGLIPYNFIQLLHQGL

T20: Lsb1, P53281
T20 sequence (P53281 45-122, looked up): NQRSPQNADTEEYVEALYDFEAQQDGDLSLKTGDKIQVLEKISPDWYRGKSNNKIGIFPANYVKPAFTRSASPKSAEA

T21: Bzz1-1, P38822
T21 sequence (P38822 478-572, looked up): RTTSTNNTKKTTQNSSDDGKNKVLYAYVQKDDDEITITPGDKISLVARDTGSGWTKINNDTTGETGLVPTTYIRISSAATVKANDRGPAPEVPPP


molecular target: Rvs167, P39743; test: SPOT array; details: median of control spots 2707
Sequence (P39743 419-482): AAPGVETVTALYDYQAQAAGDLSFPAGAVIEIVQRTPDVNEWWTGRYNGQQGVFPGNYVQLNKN

SPOT intensity | Binder
0 | FSRRQSMDIPSKNRN
0 | NIKVLLNPKLGKPVK
0 | NILKRRPLKLEAPSK

molecular target: T1, Myo5, Q04439; test: SPOT array; details: median of control spots 471

SPOT intensity | Binder
83 | FSRRQSMDIPSKNRN
0 | NIKVLLNPKLGKPVK
0 | NILKRRPLKLEAPSK

molecular target: T2, Pin3, Q06449; test: SPOT array; details: median of control spots 2171

SPOT intensity | Binder
195 | FSRRQSMDIPSKNRN
2 | NIKVLLNPKLGKPVK
1 | NILKRRPLKLEAPSK

molecular target: T3, Boi2, P39969; test: SPOT array; details: median of control spots 1161

SPOT intensity | Binder
1 | FSRRQSMDIPSKNRN
0 | NIKVLLNPKLGKPVK
3 | NILKRRPLKLEAPSK

molecular target: T4, Lsb4, P32793; test: SPOT array; details: median of control spots 397

SPOT intensity | Binder
84 | FSRRQSMDIPSKNRN
1 | NIKVLLNPKLGKPVK
1 | NILKRRPLKLEAPSK

molecular target: T5, Nbp2, Q12163; test: SPOT array; details: median of control spots 357

SPOT intensity | Binder
2 | FSRRQSMDIPSKNRN
2 | NIKVLLNPKLGKPVK
0 | NILKRRPLKLEAPSK

molecular target: T6, Boi1, P38041; test: SPOT array; details: median of control spots 1162

SPOT intensity | Binder
0 | FSRRQSMDIPSKNRN
5 | NIKVLLNPKLGKPVK
7 | NILKRRPLKLEAPSK

molecular target: T7, Bbc1, P47068; test: SPOT array; details: median of control spots 796

SPOT intensity | Binder
7 | FSRRQSMDIPSKNRN
111 | NIKVLLNPKLGKPVK
272 | NILKRRPLKLEAPSK

molecular target: T8, Sla1-3, P32790; test: SPOT array; details: median of control spots 5475

SPOT intensity | Binder
1 | FSRRQSMDIPSKNRN
8 | NIKVLLNPKLGKPVK
28 | NILKRRPLKLEAPSK

molecular target: T9, Lsb3, P43603; test: SPOT array; details: median of control spots 406

SPOT intensity | Binder
22 | FSRRQSMDIPSKNRN
0 | NIKVLLNPKLGKPVK
0 | NILKRRPLKLEAPSK

molecular target: T10, Sla1-2, P32790; test: SPOT array; details: median of control spots 712

SPOT intensity | Binder
27 | FSRRQSMDIPSKNRN
0 | NIKVLLNPKLGKPVK
0 | NILKRRPLKLEAPSK

molecular target: T11, Pex13, P80667; test: SPOT array; details: median of control spots 1341

SPOT intensity | Binder
61 | FSRRQSMDIPSKNRN
6 | NIKVLLNPKLGKPVK
2 | NILKRRPLKLEAPSK

molecular target: T12, Bzz1-2, P38822; test: SPOT array; details: median of control spots 4538

SPOT intensity | Binder
26 | FSRRQSMDIPSKNRN
6 | NIKVLLNPKLGKPVK
18 | NILKRRPLKLEAPSK

molecular target: Bem1-1, P29366; test: SPOT array; details: median of control spots 4282
Sequence (P29366 55-141): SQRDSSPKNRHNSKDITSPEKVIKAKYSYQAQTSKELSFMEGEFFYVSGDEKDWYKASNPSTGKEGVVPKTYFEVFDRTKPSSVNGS

SPOT intensity | Binder
7 | FSRRQSMDIPSKNRN
2 | NIKVLLNPKLGKPVK
0 | NILKRRPLKLEAPSK

molecular target: T13, Hse1, P38753; test: SPOT array; details: median of control spots 1727

SPOT intensity | Binder
8 | FSRRQSMDIPSKNRN
20 | NIKVLLNPKLGKPVK
302 | NILKRRPLKLEAPSK

molecular target: GST; test: SPOT array; details: median of control spots 978

SPOT intensity | Binder
1 | FSRRQSMDIPSKNRN
0 | NIKVLLNPKLGKPVK
0 | NILKRRPLKLEAPSK

molecular target: Myo3, P36006; test: SPOT array; details: median of control spots 468

SPOT intensity | Binder
44 | FSRRQSMDIPSKNRN
6 | NIKVLLNPKLGKPVK
4 | NILKRRPLKLEAPSK

molecular target: Sho1, P40073; test: SPOT array; details: median of control spots 1148
Sequence (P40073 287-367): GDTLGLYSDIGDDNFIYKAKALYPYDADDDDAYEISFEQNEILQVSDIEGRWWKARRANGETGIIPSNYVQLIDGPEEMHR

SPOT intensity | Binder
60 | FSRRQSMDIPSKNRN
63 | NIKVLLNPKLGKPVK
65 | NILKRRPLKLEAPSK

molecular target: T14, Cdc25, P04821; test: SPOT array; details: median of control spots 969

SPOT intensity | Binder
16 | FSRRQSMDIPSKNRN
96 | NIKVLLNPKLGKPVK
297 | NILKRRPLKLEAPSK

molecular target: T15, Cyk3, Q07533; test: SPOT array; details: median of control spots 1451

SPOT intensity | Binder
0 | FSRRQSMDIPSKNRN
5 | NIKVLLNPKLGKPVK
4 | NILKRRPLKLEAPSK

molecular target: T16, Abp1, P15891; test: SPOT array; details: median of control spots 935

SPOT intensity | Binder
127 | FSRRQSMDIPSKNRN
93 | NIKVLLNPKLGKPVK
92 | NILKRRPLKLEAPSK

molecular target: Bem1-2, P29366; test: SPOT array; details: median of control spots 4347
Sequence (P29366 139-227): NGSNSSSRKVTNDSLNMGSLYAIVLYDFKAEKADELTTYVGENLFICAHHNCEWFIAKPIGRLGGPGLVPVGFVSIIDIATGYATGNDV

SPOT intensity | Binder
0 | FSRRQSMDIPSKNRN
3 | NIKVLLNPKLGKPVK
0 | NILKRRPLKLEAPSK

molecular target: T17, Bud14, P27637; test: SPOT array; details: median of control spots 956

SPOT intensity | Binder
6 | FSRRQSMDIPSKNRN
27 | NIKVLLNPKLGKPVK
19 | NILKRRPLKLEAPSK

molecular target: T18, Fus1, P11710; test: SPOT array; details: median of control spots 1200

SPOT intensity | Binder
0 | FSRRQSMDIPSKNRN
2 | NIKVLLNPKLGKPVK
37 | NILKRRPLKLEAPSK

molecular target: T19, Hof1, Q05080; test: SPOT array; details: median of control spots 4086

SPOT intensity | Binder
0 | FSRRQSMDIPSKNRN
13 | NIKVLLNPKLGKPVK
14 | NILKRRPLKLEAPSK

molecular target: T20, Lsb1, P53281; test: SPOT array; details: median of control spots 388

SPOT intensity | Binder
200 | FSRRQSMDIPSKNRN
1 | NIKVLLNPKLGKPVK
2 | NILKRRPLKLEAPSK

molecular target: T21, Bzz1-1, P38822; test: SPOT array; details: median of control spots 4446

SPOT intensity | Binder
1 | FSRRQSMDIPSKNRN
2 | NIKVLLNPKLGKPVK
2 | NILKRRPLKLEAPSK
